Results as given in patent US20220380471A1.
Where a chain is given by its changes, count along the chain named.

Tests used:
Irrelevant antigen [1] = experiment: ELISA; row Irrelevant antigen; well 3 of 3
human B7H3 (human) [2] = target: human B7H3 (human) (UniProt Q5ZPR3); experiment: ELISA; row Human; well 2 of 3
human B7H3 (human) [3] = target: human B7H3 (human) (UniProt Q5ZPR3); experiment: ELISA; row Human; well 1 of 3
monkey B7H3-His (monkey) [4] = experiment: ELISA; row Monkey; well 1 of 3
Irrelevant antigen [5] = experiment: ELISA; row Irrelevant antigen; well 2 of 3
[6] = target: recombinant human B7H3-Fc protein (human) (UniProt Q5ZPR3); experiment: ELISA; row B7H3-Fc; well 3 of 3
mouse B7H3-His (mouse) [7] = target: T1, mouse B7H3-His (mouse) (UniProt Q8VE98); experiment: ELISA; row Mouse-1 (msB7H3); well 1 of 3
T1 sequence (looked up): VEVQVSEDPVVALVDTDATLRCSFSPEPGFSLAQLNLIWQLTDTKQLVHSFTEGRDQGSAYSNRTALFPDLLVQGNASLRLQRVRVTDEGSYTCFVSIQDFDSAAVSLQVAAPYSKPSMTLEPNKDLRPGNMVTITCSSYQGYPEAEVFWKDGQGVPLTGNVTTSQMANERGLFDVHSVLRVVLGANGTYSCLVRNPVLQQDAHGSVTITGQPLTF

[8] = target: recombinant human B7H3-Fc protein (human) (UniProt Q5ZPR3); experiment: ELISA; row B7H3-Fc; well 1 of 3
mouse B7H3-His (mouse) [9] = target: T1, mouse B7H3-His (mouse); experiment: ELISA; row Mouse-2 (mB7H3); well 2 of 3
PD-L1 [10] = experiment: ELISA; row PDL1-Fc; well 2 of 3
hB7H3-His (human) [11] = target: hB7H3-His (human) (UniProt Q5ZPR3); experiment: ELISA; row B7H3-his; well 2 of 3
HN3-Fc [12] = experiment: ELISA; row HN3-Fc; well 1 of 3
hB7H3-His (human) [13] = target: hB7H3-His (human) (UniProt Q5ZPR3); experiment: ELISA; row B7H3-his; well 3 of 3
rat B7H3-His (rat) [14] = target: T2, rat B7H3-His (rat) (UniProt Q7TPB4); experiment: ELISA; row Rat; well 2 of 3
T2 sequence (looked up): T1 sequence (looked up) with A33R, S62A, N131D, V156L, L214M

PD-L1 [15] = experiment: ELISA; row PDL1-Fc; well 3 of 3
hB7H3-His (human) [16] = target: hB7H3-His (human) (UniProt Q5ZPR3); experiment: ELISA; row B7H3-his; well 1 of 3
HN3-Fc [17] = experiment: ELISA; row HN3-Fc; well 3 of 3
HN3-Fc [18] = experiment: ELISA; row HN3-Fc; well 2 of 3
mouse B7H3-His (mouse) [19] = target: T1, mouse B7H3-His (mouse); experiment: ELISA; row Mouse-1 (msB7H3); well 3 of 3
[20] = target: recombinant human B7H3-Fc protein (human) (UniProt Q5ZPR3); experiment: ELISA; row B7H3-Fc; well 2 of 3
B7H3 R&D [21] = experiment: ELISA; row B7H3 R&D; well 2 of 3
human B7H3 (human) [22] = target: human B7H3 (human) (UniProt Q5ZPR3); experiment: ELISA; row Human; well 3 of 3
B7H3 R&D [23] = experiment: ELISA; row B7H3 R&D; well 1 of 3
monkey B7H3-His (monkey) [24] = experiment: ELISA; row Monkey; well 3 of 3
rat B7H3-His (rat) [25] = target: T2, rat B7H3-His (rat); experiment: ELISA; row Rat; well 3 of 3
mouse B7H3-His (mouse) [26] = target: T1, mouse B7H3-His (mouse); experiment: ELISA; row Mouse-2 (mB7H3); well 1 of 3
B7H3 R&D [27] = experiment: ELISA; row B7H3 R&D; well 3 of 3
Irrelevant antigen [28] = experiment: ELISA; row Irrelevant antigen; well 1 of 3
mouse B7H3-His (mouse) [29] = target: T1, mouse B7H3-His (mouse); experiment: ELISA; row Mouse-1 (msB7H3); well 2 of 3
mouse B7H3-His (mouse) [30] = target: T1, mouse B7H3-His (mouse); experiment: ELISA; row Mouse-2 (mB7H3); well 3 of 3
monkey B7H3-His (monkey) [31] = experiment: ELISA; row Monkey; well 2 of 3
rat B7H3-His (rat) [32] = target: T2, rat B7H3-His (rat); experiment: ELISA; row Rat; well 1 of 3
PD-L1 [33] = experiment: ELISA; row PDL1-Fc; well 1 of 3

PD-L1, sequence (Q9NZQ7 19-238): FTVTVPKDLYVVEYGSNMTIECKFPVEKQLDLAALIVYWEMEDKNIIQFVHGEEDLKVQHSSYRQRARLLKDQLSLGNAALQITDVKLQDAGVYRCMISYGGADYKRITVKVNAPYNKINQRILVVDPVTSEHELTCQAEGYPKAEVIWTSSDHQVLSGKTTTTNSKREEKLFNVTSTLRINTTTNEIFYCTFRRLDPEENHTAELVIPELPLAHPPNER
hB7H3-His (human), sequence (Q5ZPR3 29-461 limits assumed): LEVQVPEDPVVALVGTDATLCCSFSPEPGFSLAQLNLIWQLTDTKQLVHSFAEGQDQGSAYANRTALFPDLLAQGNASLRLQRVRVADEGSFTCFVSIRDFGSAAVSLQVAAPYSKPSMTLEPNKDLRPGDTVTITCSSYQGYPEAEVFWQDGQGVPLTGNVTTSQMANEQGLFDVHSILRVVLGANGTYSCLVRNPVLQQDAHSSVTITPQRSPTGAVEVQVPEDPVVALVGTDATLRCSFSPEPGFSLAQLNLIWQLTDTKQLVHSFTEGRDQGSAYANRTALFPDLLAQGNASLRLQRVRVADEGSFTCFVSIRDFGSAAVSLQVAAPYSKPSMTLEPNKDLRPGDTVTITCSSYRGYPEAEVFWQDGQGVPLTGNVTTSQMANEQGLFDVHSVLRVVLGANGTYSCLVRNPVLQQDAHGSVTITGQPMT
human B7H3 (human), sequence (Q5ZPR3 29-466 limits assumed): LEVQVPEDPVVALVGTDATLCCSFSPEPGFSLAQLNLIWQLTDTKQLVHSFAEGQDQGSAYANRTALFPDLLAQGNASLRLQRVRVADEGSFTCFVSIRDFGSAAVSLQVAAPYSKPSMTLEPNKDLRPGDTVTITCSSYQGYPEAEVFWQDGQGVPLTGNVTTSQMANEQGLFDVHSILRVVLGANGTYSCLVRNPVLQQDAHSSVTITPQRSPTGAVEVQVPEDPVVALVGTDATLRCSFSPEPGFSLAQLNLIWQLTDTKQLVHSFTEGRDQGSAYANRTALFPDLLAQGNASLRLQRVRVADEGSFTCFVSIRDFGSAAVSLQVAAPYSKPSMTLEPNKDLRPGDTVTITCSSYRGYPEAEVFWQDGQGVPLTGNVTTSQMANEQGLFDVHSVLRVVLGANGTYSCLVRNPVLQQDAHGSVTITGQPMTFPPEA
recombinant human B7H3-Fc protein (human), sequence (Q5ZPR3 29-466 limits assumed): as above

Substance: commercial anti-human B7H3 hybridoma antibody 376.96
- ELISA reading (name not given) (Irrelevant antigen [1]): 0.0624
- ELISA reading (name not given) (human B7H3 (human) [2]): 1.57
- ELISA reading (name not given) (human B7H3 (human) [3]): 1.48
- ELISA reading (name not given) (monkey B7H3-His (monkey) [4]): 1.59
- ELISA reading (name not given) (Irrelevant antigen [5]): 0.0634
- ELISA reading (name not given) [6]: 1.59
- ELISA reading (name not given) (mouse B7H3-His (mouse) [7]): 0.14
- ELISA reading (name not given) [8]: 1.61
- ELISA reading (name not given) (mouse B7H3-His (mouse) [9]): 0.145
- ELISA reading (name not given) (PD-L1 [10]): 0.0812
- ELISA reading (name not given) (hB7H3-His (human) [11]): 0.812
- ELISA reading (name not given) (HN3-Fc [12]): 0.0545
- ELISA reading (name not given) (hB7H3-His (human) [13]): 0.813
- ELISA reading (name not given) (rat B7H3-His (rat) [14]): 1.01
- ELISA reading (name not given) (PD-L1 [15]): 0.0749
- ELISA reading (name not given) (hB7H3-His (human) [16]): 0.811
- ELISA reading (name not given) (HN3-Fc [17]): 0.0521
- ELISA reading (name not given) (HN3-Fc [18]): 0.0541
- ELISA reading (name not given) (mouse B7H3-His (mouse) [19]): 0.133
- ELISA reading (name not given) [20]: 1.59
- ELISA reading (name not given) (B7H3 R&D [21]): 0.993
- ELISA reading (name not given) (human B7H3 (human) [22]): 1.44
- ELISA reading (name not given) (B7H3 R&D [23]): 0.991
- ELISA reading (name not given) (monkey B7H3-His (monkey) [24]): 1.65
- ELISA reading (name not given) (rat B7H3-His (rat) [25]): 1.06
- ELISA reading (name not given) (mouse B7H3-His (mouse) [26]): 0.157
- ELISA reading (name not given) (B7H3 R&D [27]): 1.07
- ELISA reading (name not given) (Irrelevant antigen [28]): 0.0531
- ELISA reading (name not given) (mouse B7H3-His (mouse) [29]): 0.156
- ELISA reading (name not given) (mouse B7H3-His (mouse) [30]): 0.184
- ELISA reading (name not given) (monkey B7H3-His (monkey) [31]): 1.59
- ELISA reading (name not given) (rat B7H3-His (rat) [32]): 0.981
- ELISA reading (name not given) (PD-L1 [33]): 0.0652
